According to patent US20230227838A1, “ENHANCED CELL SURVIVAL AGAINST BIOTIC AND ABIOTIC STRESSES THROUGH SALICYLICK ACID-INDUCED NPR1 CONDENSATES” (priority 2020, published 2023):

Target: sim3-GFP (Arabidopsis thaliana) (UniProt P93002)
Test: sim3-GFP IP, LC-MS/MS

sim3-GFP (Arabidopsis thaliana), sequence (P93002 other isoform, or with tags, fused parts or gaps): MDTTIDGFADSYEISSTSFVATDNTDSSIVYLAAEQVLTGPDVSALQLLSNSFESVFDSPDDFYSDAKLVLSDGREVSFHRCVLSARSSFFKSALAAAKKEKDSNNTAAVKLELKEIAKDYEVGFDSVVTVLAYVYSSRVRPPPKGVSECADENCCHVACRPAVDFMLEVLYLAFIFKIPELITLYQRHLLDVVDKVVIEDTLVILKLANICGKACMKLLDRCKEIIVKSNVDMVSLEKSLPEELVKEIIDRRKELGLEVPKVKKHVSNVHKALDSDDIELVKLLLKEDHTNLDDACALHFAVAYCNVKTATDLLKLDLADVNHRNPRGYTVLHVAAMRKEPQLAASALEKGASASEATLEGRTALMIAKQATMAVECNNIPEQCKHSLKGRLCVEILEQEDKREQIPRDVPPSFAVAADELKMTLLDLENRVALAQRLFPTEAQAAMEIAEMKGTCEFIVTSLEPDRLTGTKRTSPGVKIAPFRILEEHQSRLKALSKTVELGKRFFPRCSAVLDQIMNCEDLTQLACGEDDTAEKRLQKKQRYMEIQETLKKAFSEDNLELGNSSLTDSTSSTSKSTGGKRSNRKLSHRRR
P-loop containing nucleoside triphosphate hydrolases superfamily protein (AT3G28510), sequence (Q9LH84 whole entry): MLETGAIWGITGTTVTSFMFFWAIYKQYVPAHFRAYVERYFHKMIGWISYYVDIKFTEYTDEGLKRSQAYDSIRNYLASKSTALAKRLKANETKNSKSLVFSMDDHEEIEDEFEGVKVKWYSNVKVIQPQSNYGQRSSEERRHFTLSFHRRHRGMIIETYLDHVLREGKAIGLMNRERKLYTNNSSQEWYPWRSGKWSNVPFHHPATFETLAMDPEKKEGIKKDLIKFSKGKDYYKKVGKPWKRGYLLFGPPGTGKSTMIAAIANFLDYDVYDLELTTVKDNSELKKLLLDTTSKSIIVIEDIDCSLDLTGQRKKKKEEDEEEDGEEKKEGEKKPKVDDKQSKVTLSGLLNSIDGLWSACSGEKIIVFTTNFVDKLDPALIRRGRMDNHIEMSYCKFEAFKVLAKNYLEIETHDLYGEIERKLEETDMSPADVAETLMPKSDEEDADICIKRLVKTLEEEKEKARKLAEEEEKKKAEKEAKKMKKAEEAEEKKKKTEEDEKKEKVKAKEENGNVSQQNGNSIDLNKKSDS
RNA helicase family protein (AT1G27900), sequence (Q93Y16 2-700): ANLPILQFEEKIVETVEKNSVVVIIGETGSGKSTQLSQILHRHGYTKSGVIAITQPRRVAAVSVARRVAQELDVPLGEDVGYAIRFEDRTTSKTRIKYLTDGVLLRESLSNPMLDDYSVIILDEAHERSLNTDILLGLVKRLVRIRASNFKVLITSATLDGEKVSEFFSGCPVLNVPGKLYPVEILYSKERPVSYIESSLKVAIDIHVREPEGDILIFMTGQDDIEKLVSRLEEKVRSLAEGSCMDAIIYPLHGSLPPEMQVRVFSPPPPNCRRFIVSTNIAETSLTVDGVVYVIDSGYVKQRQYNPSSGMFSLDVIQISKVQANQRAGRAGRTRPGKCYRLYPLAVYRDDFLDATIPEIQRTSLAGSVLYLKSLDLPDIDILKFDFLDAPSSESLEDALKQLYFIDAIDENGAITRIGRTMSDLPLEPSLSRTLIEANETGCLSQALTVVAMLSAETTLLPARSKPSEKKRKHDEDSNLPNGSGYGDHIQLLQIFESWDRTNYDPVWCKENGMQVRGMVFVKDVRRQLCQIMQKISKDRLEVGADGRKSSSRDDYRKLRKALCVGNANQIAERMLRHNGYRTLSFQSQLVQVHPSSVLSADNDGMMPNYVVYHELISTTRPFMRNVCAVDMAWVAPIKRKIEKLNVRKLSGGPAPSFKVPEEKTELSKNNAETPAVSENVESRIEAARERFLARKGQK
PRH75, DEAD box RNA helicase (PRH75), sequence (Q39189 whole entry): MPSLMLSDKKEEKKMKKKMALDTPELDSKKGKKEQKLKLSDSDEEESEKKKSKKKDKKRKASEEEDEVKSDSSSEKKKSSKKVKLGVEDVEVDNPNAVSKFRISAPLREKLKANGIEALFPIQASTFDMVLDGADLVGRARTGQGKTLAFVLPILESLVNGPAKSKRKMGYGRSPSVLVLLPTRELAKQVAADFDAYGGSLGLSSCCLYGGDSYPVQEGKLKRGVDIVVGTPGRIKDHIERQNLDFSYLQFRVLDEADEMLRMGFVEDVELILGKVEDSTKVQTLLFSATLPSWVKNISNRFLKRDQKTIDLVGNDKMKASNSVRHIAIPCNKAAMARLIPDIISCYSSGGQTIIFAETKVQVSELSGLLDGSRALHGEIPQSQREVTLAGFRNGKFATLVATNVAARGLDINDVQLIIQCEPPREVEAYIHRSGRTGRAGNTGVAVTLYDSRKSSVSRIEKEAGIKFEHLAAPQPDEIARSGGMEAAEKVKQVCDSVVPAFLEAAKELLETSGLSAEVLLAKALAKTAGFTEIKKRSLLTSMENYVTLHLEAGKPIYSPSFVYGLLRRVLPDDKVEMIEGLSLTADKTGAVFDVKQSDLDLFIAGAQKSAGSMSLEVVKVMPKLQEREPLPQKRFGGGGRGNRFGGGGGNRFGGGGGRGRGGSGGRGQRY
OPR1, 12-oxophytodienoate reductase 1, sequence (Q8LAH7 whole entry): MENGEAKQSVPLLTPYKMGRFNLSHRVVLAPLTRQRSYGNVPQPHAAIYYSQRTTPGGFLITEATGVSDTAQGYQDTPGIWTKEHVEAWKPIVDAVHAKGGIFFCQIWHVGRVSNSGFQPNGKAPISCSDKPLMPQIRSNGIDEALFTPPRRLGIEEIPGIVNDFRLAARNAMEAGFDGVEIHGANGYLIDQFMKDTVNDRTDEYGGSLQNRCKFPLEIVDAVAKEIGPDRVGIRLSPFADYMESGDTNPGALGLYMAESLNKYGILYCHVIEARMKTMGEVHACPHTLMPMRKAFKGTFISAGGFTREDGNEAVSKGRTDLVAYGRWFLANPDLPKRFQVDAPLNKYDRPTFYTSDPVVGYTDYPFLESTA
EDS1, enhanced disease susceptability, sequence (Q9SU72 2-623): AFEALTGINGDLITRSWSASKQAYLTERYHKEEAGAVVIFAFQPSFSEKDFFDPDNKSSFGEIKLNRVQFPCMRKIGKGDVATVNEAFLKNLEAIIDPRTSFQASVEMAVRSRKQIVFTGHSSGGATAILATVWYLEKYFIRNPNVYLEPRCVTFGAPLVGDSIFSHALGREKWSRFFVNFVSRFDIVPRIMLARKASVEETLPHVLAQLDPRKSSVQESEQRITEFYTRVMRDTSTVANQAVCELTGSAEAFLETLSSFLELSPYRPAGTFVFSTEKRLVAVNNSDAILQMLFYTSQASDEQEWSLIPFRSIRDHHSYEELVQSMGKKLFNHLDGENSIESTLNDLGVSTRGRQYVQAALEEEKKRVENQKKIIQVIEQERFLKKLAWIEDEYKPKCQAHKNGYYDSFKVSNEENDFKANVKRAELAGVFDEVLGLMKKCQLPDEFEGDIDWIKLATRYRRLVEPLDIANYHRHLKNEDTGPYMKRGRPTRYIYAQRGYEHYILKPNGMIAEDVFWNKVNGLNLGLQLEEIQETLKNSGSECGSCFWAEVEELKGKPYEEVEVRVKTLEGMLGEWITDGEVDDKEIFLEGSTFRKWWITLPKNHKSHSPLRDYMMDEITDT
P-loop containing nucleoside triphosphate hydrolases superfamily protein (AT3G28540), sequence (Q9LH82 whole entry): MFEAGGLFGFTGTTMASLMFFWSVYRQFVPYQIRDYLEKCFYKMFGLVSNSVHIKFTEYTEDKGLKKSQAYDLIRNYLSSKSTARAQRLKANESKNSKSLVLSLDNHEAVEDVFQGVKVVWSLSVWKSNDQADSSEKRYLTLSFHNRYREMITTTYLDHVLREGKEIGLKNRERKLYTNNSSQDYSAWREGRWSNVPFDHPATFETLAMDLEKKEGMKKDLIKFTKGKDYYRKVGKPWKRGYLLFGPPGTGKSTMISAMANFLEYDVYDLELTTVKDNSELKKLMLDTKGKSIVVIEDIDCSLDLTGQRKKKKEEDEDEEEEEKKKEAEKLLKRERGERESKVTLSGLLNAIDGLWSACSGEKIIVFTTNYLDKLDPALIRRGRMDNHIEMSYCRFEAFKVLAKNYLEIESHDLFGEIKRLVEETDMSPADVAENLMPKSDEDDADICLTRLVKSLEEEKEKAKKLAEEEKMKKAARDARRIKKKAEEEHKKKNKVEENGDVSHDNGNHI
SAG2, aleurain-like protease, sequence (Q8H166 141-358): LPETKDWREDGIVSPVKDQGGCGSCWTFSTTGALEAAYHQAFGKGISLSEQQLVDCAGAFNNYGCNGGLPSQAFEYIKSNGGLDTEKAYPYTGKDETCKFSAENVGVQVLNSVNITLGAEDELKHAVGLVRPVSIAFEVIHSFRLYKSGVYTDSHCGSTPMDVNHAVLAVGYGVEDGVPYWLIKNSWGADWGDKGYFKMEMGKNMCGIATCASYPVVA
TOC34, translocon at the outer envelope membrane of chloroplasts 34, sequence (Q38906 2-313): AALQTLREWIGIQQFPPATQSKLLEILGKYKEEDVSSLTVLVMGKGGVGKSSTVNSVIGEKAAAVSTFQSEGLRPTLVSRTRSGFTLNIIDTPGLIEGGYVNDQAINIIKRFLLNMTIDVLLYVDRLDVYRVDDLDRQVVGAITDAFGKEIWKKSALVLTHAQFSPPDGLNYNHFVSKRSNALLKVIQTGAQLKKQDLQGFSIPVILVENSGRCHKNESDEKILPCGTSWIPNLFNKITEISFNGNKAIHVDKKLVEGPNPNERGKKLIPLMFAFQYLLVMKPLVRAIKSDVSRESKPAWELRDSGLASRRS
SIRANBP, Pleckstrin homology (PH) domain superfamily protein, sequence (Q9LMK7 whole entry): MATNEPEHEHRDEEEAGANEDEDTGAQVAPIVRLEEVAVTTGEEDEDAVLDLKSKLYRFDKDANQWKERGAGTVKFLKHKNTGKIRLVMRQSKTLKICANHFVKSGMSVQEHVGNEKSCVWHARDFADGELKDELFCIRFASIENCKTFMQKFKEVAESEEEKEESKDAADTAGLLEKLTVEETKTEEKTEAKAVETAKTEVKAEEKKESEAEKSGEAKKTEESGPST
ROC3, rotamase CYP 3, sequence (Q38900 whole entry): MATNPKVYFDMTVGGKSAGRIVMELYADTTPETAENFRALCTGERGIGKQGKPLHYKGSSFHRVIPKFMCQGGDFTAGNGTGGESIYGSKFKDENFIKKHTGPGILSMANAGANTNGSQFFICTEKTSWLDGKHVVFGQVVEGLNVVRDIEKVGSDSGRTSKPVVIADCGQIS

Row | Substance | Normalized Fold Change: SA vs Mock
1 | TOC86, translocon at the outer envelope membrane of chloroplasts 159 | 3.61 fold
2 | P-loop containing nucleoside triphosphate hydrolases superfamily protein (AT3G28540) | 9.62 fold
3 | WAK4, wall associated kinase 4 | 8.98 fold
4 | NPR2, NPR1-like protein 2 (from UniProt Q9SZI3 1-600) | 16.7 fold
5 | RD19A, Papain family cysteine protease | 3.14 fold
6 | NRP1, nodulin-related protein 1 | 14.3 fold
7 | SIRANBP, Pleckstrin homology (PH) domain superfamily protein | 709 fold
8 | ATR4, CYP83B1, RED1, RNT1, SUR2, cytochrome P450, family 83, subfamily B, polypeptide 1 (from UniProt O65782 1-499) | 2.42 fold
9 | Transducin/WD40 repeat-like superfamily protein (AT3G50590) | 3400 fold
10 | ERF1-2, eukaryotic release factor 1-2 | 2.5 fold
11 | CAND1, cullin-associated and neddylation dissociated (from UniProt Q8L5Y6 2-1219) | 42.1 fold
12 | ROC3, rotamase CYP 3 | 5.75 fold
13 | S-adenosyl-L-methionine-dependent methyltransferases superfamily protein (AT1G55450) | 2.24 fold
14 | ATMDAR2, Pyridine nucleotide-disulphide oxidoreductase family protein | 2.75 fold
15 | UBQ6, ubiquitin 6 | 2.04 fold
16 | S-adenosyl-L-methionine-dependent methyltransferases superfamily protein (AT2G32160) | 3.44 fold
17 | AOAT2, GGT2, alanine-2-oxoglutarate aminotransferase 2 | 10.5 fold
18 | CAM7, calmodulin 7 (from UniProt P59220 1-149) | 3.96 fold
19 | P-loop containing nucleoside triphosphate hydrolases superfamily protein (AT5G17760) | 4790 fold
20 | Disease resistance protein (TIR-NBS class) (AT3G04210) | 7.6 fold
21 | UBA1, ubiquitin-activating enzyme 1 (from UniProt P93028 1-1080) | 3.32 fold
22 | Disease resistance protein (TIR-NBS-LRR class) (AT5G41750) | 10.2 fold
23 | OPR1, 12-oxophytodienoate reductase 1 | 4110 fold

Row | Substance | Normalized Fold Change: SA vs Mock
24 | GDH1, glutamate dehydrogenase 1 | 86.4 fold
25 | CTF2B, FAD/NAD(P)-binding oxidoreductase family protein | 3.15 fold
26 | BCS1, cytochrome BC1 synthesis | 16 fold
27 | FUS11, Proteasome component (PCI) domain protein | 2.75 fold
28 | ATSPS4F, Sucrose-phosphate synthase family protein | 2.2 fold
29 | PTEN 2 | 2.24 fold
30 | AT3G47630 | 703 fold
31 | GSTF6, glutathione S-transferase 6 (from UniProt P42760 1-208) | 2.01 fold
32 | TTG1, Transducin/WD40 repeat-like superfamily protein (from UniProt Q9XGN1 1-341) | 3.34 fold
33 | DDB1B, damaged DNA binding protein 1B (from UniProt O49552 1-1088) | 1620 fold
34 | SCPL27, serine carboxypeptidase-like 27 | 5810 fold
35 | PLP2, phospholipase A 2A | 3.96 fold
36 | Leucine-rich repeat (LRR) family protein (AT5G45510) | 5.05 fold
37 | Disease resistance protein (TIR-NBS-LRR class) (AT4G19510) | 5.17 fold
38 | GSTU19, glutathione S-transferase TAU 19 (from UniProt Q9ZRW8 1-219) | 2.58 fold
39 | PRH75, DEAD box RNA helicase (PRH75) | 5.9 fold
40 | AGD5, NEV, ARF-GAP domain 5 | 8.65 fold
41 | Transducin/WD40 repeat-like superfamily protein (AT3G45620) | 3.67 fold
42 | NAD(P)-binding Rossmann-fold superfamily protein (AT2G29320) | 40 fold
43 | EDA10 | 2.22 fold
44 | RNA helicase family protein (AT1G27900) | 1960 fold
45 | EDS1, enhanced disease susceptability | 3.18 fold
46 | Leucine-rich repeat (LRR) family protein (AT5G45520) | 2270 fold

Row | Substance | Normalized Fold Change: SA vs Mock
47 | IMPA1, importin alpha isoform 1 | 2.09 fold
48 | SAG2, aleurain-like protease | 4.08 fold
49 | SOUL-1, SOUL heme-binding family protein | 2.93 fold
50 | RNA helicase family protein (AT3G62310) | 7.18 fold
51 | PCNA2, proliferating cell nuclear antigen 2 | 2.83 fold
52 | PAD3, Cytochrome P450 superfamily protein (from UniProt Q9LW27 1-490) | 14.6 fold
53 | Disease resistance protein (TIR-NBS class) (AT1G66090) | 6.26 fold
54 | CER3, FLP1, WAX2, YRE, Fatty acid hydroxylase superfamily | 3320 fold
55 | SQE3, squalene epoxidase 3 | 50.1 fold
56 | EDA39, calmodulin-binding family protein | 3.1 fold
57 | P-loop containing nucleoside triphosphate hydrolases superfamily protein (AT3G28510) | 6.35 fold
58 | FAD/NAD(P)-binding oxidoreductase family protein (AT5G22140) | 9.82 fold
59 | ATCNX1, CNX1, calnexin 1 | 5.26 fold
60 | NPR3, NPR1-like protein 3 (from UniProt Q8L746 1-586) | 9.4 fold
61 | P-loop containing nucleoside triphosphate hydrolases superfamily protein (AT2G28620) | 7.17 fold
62 | ATM1, myosin 1 | 2.33 fold
63 | AT3G53470 | 4.35 fold
64 | TOC34, translocon at the outer envelope membrane of chloroplasts 34 | 9.76 fold
65 | PR1, pathogenesis-related gene 1 (from UniProt P33154 27-161) | 3.65 fold
66 | CYP51, CYTOCHROME P450 51G1 | 2.8 fold
67 | Fes1A | 3.16 fold
